Laboratory results: patent publication US20100221257A1 (AstraZeneca / MedImmune, published 2010)
Residue numbers refer to the chain shown, from its start. Values belong to the binder of their own block, whether it stands above or below them.

How the values were obtained:
[1] = target: Antibody 6 (Eu3+ cryptate labelled, Example 5); assay: HTRF competition: unlabelled test protein against biotin labelled human IL-1R1/Fc binding to cryptate labelled antibody
Description: (§1) Antibody was cryptate labelled with Eu³′ Cryptate labelling kit according to the manufacturer's instructions (CisBio International Cat No. 62EUSPEA) and IL-1R1/Fc (SEQ ID NO: 134, see Material and Methods) was Biotin labelled with EZ Link Sulfo-NHS-Biotin (Perbio Cat No. 21335) according to the manufacturer's instructions. Assay conditions were 0.25 nM Cryptate labelled antibody, 0.3 nM biotin labelled IL-1R1/Fc, 2.5 nM streptavidin XL^{ent!} (CisBio International Cat. No. 611SAXLB) in 1×D-PBS, 0.1% BSA, 0.4M potassium fluoride in a total volume of […] in a 384 well shallow well costar plate (3676). To the assay a dilution series (from maximum of 100 nM to 0.0017 nM) of test proteins was added and the assay incubated for 3 hours at room temperature. FRET signal was detected using a PerkinElmer EnVision plate reader using a 320 nm excitation filter and 620 nm and 665 nm emission filters. Results were calculated from the 665/620 ratio as a percentage of specific binding (signal with no competitor antigen). Results were analysed with Prism (GraphPad Software) using the sigmoidal dose response model.
Antibody binding of chimeric molecules was tested in an HTRF (Homogeneous Time Resolved Fluorescence) competition assay. Molecules which bound antibody at the same paratope as human IL-1R1 inhibited the binding interaction, leading to a reduction in signal. From inhibition curves IC₅₀ values for human IL-1R1, mouse IL-1R1 and chimeric molecules were calculated (Table 12). […] Chimeras that gave similar IC₅₀ values to native human IL-1R1 still contained the epitope.

[2] = target: Antibody 6 (Eu3+ cryptate labelled, Example 5); assay: HTRF competition assay, against human IL-1R1 as reference
Description: as §1
Antibody binding of chimeric molecules was tested in an HTRF (Homogeneous Time Resolved Fluorescence) competition assay. […] From inhibition curves IC₅₀ values for human IL-1R1, mouse IL-1R1 and chimeric molecules were calculated (Table 12). […]

[3] = target: T1, human IL-1R1, endogenous on human cells (HeLa cells; whole blood) (human, UniProt P14778 18-569); assay: cell-based or functional assay
T1 sequence (looked up): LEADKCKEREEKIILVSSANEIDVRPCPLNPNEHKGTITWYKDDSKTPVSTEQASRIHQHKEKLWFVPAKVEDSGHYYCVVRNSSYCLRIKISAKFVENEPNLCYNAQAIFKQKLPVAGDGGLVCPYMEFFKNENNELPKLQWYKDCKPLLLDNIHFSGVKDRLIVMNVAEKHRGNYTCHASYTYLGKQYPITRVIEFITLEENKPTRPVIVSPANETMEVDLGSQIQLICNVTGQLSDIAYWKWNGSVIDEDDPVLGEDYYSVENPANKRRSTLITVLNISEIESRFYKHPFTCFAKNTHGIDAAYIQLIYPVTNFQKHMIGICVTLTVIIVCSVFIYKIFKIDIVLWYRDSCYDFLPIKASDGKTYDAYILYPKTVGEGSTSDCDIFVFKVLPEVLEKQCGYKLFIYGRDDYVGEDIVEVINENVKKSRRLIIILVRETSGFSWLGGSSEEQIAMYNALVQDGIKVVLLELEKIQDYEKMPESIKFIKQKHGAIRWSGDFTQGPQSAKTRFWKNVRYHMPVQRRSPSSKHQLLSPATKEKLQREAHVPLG

[4] = target: T2, human histidine tagged (HIS) IL1RFc fusion protein (human); assay: HTRF receptor-ligand assay, IgG inhibiting HIS FLAG IL-1Ra binding to cryptate labelled human HIS IL1RFc
T2 construct: Biotinylated or cryptate labelled in some assays; also called human HIS IL1RFc; huIL-1R1-Fc
Description: The ability of lead antibodies to inhibit IL-1Ra to IL-1R1 was assessed in a receptor-ligand binding HTRF® (Homogeneous Time-Resolved Fluorescence) assay format for inhibition of HIS FLAG tagged human IL1Ra (In house, E. Coli expressed; HIS FLAG IL-1RA) binding to human histidine tagged (HIS) IL1RFc fusion protein (in house), as described in the Materials and methods section.
A titration of inhibitor was used in order to establish the clone potency as measured by IC₅₀ values in the assay. All dilutions were carried out in assay buffer as for ligand binding assay above. 5 μl of a titration of inhibitor was added to a 384 well low volume assay plate (Costar 3676). This was then followed by addition of 0.4 nM cryptate labelled HIS IL1RFc. Assay plates were then sealed and incubated at room temperature in dark for 1 hour.

[5] = target: T1, human IL-1R1, endogenous on human cells …; assay: cell-based or functional assay; remark: listed apart in the source
[6] = target: T3, cynomolgus IL-1R1, endogenous on CYNOM-K1 cells (cynomolgus monkey, UniProt A0A7N9CMI5 18-569); assay: cell-based or functional assay
T3 sequence: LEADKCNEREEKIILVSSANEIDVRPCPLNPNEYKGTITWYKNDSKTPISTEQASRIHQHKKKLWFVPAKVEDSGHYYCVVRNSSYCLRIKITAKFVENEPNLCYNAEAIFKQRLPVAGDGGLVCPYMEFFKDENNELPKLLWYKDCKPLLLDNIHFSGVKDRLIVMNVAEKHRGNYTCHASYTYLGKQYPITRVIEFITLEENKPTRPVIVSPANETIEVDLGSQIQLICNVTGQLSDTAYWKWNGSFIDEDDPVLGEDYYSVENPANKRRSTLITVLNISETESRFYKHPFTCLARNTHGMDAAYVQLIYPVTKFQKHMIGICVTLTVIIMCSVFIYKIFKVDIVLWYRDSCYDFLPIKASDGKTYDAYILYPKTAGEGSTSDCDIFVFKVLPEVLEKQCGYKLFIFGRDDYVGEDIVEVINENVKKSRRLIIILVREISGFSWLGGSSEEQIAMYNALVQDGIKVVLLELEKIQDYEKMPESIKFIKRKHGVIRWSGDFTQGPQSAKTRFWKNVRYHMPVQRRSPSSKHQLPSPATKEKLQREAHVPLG

B1: MoD2c IL1R1 (Fc fusion, human;mouse, UniProt P14778 18-177, looked up, not shown: a dimerising Fc or GST)
chain: LEADKCKEREEKIILVSSANEIDVRPCPLNPNEHKGTITWYKDDSKTPVSTEQASRIHQHKEKLWFVPAKVEDSGHYYCVVRNSSYCLRIKISAKFVENEPNLCYNAQAIFKQKLPVAGDGGLVCPYMEFFKNENNELPKLQWYKDCKPLLLDNIHFSGVKDKLIVMNVAEKHRGNYTCHASYTYLGKQYPITRVIEFITLEENKPTRPVIVSPANETMEVDLGSQIQLICNVTGQLSDIAYWKWNGSVIDEDDPVLGEDYYSVENPANKRRSTLITVLNISEIESRFYKHPFTCFAKNTHGIDAAYIQLIYPVTNFQK
notes: also called chimera without loop d2-e2
IC50 [1]: 0.637 nM | fold higher IC50 than human IL-1R1 [2]: > 3 fold

B3: MoD3a2 IL1R1 (Fc fusion, human;mouse, UniProt P14778 18-272, looked up, not shown: a dimerising Fc or GST)
chain: B1 chain with K163R, V256F, G258A, Y262Q, S263F, N266H, A268S, N269T, R272K
notes: range 1-272;range 276-292;range 290-336
IC50 [1]: 0.268 nM

B5: Antibody 6 IgG1 (antibody, V domains shown)
VH: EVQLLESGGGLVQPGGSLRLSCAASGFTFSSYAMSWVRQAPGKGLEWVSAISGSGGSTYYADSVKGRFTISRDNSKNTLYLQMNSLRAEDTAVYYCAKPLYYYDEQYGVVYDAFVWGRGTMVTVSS
VL: QSVLTQPPSVSGAPGQRVTISCTGSSSNIGAGYDVHWYQQLPGTAPKLLIYGDTHRPSGVPDRFSGSKSGTSASLVIAGLQAEDEADYYCQSYDTVRLHHVFGGGTKLTVL
notes: Non-germlined IgG1, lambda light chain
IC50, inhibition of IL-1 beta induced IL-8 release in HeLa cells (IgG1) [3]: 0.0078 nM | IC50 [4]: 0.1 nM

B6: Antibody 8 IgG1 (antibody, V domains shown)
VH: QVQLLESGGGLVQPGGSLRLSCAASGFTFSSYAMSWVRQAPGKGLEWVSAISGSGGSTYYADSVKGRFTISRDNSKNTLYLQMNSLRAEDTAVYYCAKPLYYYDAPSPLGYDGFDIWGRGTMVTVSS
VL: B5 VL with V96H, R97L, L98V, H99A
notes: as for B5
IC50, inhibition of IL-1 beta induced IL-8 release in HeLa cells (IgG1) [3]: 0.0293 nM | IC50 [4]: 0.156 nM

B7: Antibody 4 IgG1 (antibody, V domains shown)
VH: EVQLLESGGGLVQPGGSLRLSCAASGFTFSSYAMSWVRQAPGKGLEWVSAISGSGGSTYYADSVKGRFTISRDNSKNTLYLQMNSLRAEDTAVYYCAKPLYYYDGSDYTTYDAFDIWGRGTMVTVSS
VL: B5 VL with V96S, R97L, L98S, H99G, H100S, V101L
IC50, inhibition of human IL-1β induced IL-8 release from HeLa cells [5]: 22 nM

B12: MoD1b IL1R1 (Fc fusion, human;mouse, UniProt P14778 18-42, looked up, not shown: a dimerising Fc or GST)
chain: LEADKCKEREEKIILVSSANEIDVRKCPLTPNKMHGDTITWYKDDSKTPVSTEQASRIHQHKEKLWFVPAKVEDSGHYYCVVRNSSYCLRIKISAKFVENEPNLCYNAQAIFKQKLPVAGDGGLVCPYMEFFKNENNELPKLQWYKDCKPLLLDNIHFSGVKDRLIVMNVAEKHRGNYTCHASYTYLGKQYPITRVIEFITLEENKPTRPVIVSPANETMEVDLGSQIQLICNVTGQLSDIAYWKWNGSVIDEDDPVLGEDYYSVENPANKRRSTLITVLNISEIESRFYKHPFTCFAKNTHGIDAAYIQLIYPVTNFQK
notes: range 1-42;range 45-56;range 54-336
IC50 [1]: 0.201 nM

B14: Antibody 2 IgG1 (antibody, V domains shown)
VH: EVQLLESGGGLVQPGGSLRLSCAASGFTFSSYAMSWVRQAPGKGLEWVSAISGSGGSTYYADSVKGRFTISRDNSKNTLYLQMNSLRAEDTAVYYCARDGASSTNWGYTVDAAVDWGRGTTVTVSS
VL: QAVLTQPSSASGTPGQRVTISCSGSSSNIGSNYVFWYQQFPGTAPQLLVKWNNQRPSGVPDRFSGSKSGTSASLAISGLRSEDEADYYCAAWDDHLEQLHFGGGTKLTVL
notes: as for B5
IC50, inhibition of IL-1 beta induced IL-8 release in HeLa cells (IgG1) [3]: 0.0775 nM | IC50 [4]: 0.256 nM

Continued, values first:

IC50 [1]: 4.6 nM | fold higher IC50 than human IL1R1 [2]: 26 fold
B2: MoD2a IL1R1 (Fc fusion, human;mouse, UniProt P14778 18-122, looked up, not shown: a dimerising Fc or GST)
chain: B1 chain with N106S, A107T, I110T, K112P, K114R, P116H, V117I, K163R
notes: range 1-122;range 126-137;range 135-336; also called chimera without human beta strand a2

IC50 [1]: 0.337 nM
B4: MoD3b IL1R1 (Fc fusion, human;mouse, UniProt P14778 18-309, looked up, not shown: a dimerising Fc or GST)
chain: LEADKCKEREEKIILVSSANEIDVRPCPLNPNEHKGTITWYKDDSKTPVSTEQASRIHQHKEKLWFVPAKVEDSGHYYCVVRNSSYCLRIKISAKFVENEPNLCYNAQAIFKQKLPVAGDGGLVCPYMEFFKNENNELPKLQWYKDCKPLLLDNIHFSGVKDRLIVMNVAEKHRGNYTCHASYTYLGKQYPITRVIEFITLEENKPTRPVIVSPANETMEVDLGSQIQLICNVTGQLSDIAYWKWNGSVIDEDDPVLGEDYYSVENPANKRRSTLITVLNISEIESRFYKHPFICVVKNTNIFESAHVQLIYPVTNFQK

IC50, inhibition of IL-1 beta induced IL-8 release in HeLa cells (IgG1) [3]: 0.032 nM | IC50 [4]: 0.186 nM
B8: Antibody 5 IgG1 (antibody, V domains shown)
VH: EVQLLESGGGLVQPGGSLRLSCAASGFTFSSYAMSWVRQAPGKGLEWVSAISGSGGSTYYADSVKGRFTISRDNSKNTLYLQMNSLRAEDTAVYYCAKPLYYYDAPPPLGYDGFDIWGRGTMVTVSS
VL: B5 VL with V96A, R97G, L98G, H99G, V101H
notes: as for B5

IC50, inhibition of IL-1β induced IL-8 release from CYNOM-K1 cells, experiment 1 [6]: 1.2 nM | IC50, inhibition of IL-1β induced IL-8 release from CYNOM-K1 cells, experiment 2 [6]: 1.1 nM | IC50, inhibition of IL-1 alpha induced IL-8 release in HeLa cells (GL IgG2) [3]: 0.0162 nM | IC50, inhibition of IL-1 beta induced IL-8 release in HeLa cells (GL IgG2) [3]: 0.0069 nM | IC50 [4]: 0.208 nM
B9: Antibody 9GL IgG2 (antibody, V domains shown)
VH: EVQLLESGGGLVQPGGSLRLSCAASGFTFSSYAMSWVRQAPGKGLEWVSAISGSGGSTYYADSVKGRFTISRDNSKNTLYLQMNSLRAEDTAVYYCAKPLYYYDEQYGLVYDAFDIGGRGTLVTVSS
VL: B5 VL with V76A, A78T, V96L, R97L, H99A, H100P, V101Q
notes: Germlined IgG2, lambda light chain; also called 28Q1 GL

IC50, inhibition of IL-1 beta induced IL-8 release in HeLa cells (IgG1) [3]: 0.0115 nM | IC50 [4]: 0.156 nM
B10: Antibody 9 IgG1 (antibody, V domains shown)
VH: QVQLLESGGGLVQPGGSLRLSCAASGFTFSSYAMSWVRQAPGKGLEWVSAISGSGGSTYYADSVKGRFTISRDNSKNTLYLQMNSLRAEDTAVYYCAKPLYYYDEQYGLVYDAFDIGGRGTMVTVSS
VL: B5 VL with V96L, R97L, H99A, H100P, V101Q
notes: as for B5

IC50, inhibition of IL-1 beta induced IL-8 release in HeLa cells (IgG1) [3]: 0.0426 nM | IC50 [4]: 0.168 nM
B11: Antibody 7 IgG1 (antibody, V domains shown)
VH: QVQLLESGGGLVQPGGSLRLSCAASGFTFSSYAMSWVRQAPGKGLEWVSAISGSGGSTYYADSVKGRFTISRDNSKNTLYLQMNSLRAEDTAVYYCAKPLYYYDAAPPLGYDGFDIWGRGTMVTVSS
VL: B5 VL with V96D, R97A, L98A, H99R, V101Q
notes: as for B5

IC50, inhibition of human IL-1β induced IL-8 release from HeLa cells [5]: 95.9 nM
B13: Antibody 1 IgG1 (antibody, V domains shown)
VH: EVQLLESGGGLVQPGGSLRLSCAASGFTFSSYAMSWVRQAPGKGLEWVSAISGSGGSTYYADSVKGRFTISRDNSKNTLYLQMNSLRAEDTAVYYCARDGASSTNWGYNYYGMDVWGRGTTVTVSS
VL: B14 VL with H95S, E97S, Q98G, H100V

IC50, inhibition of IL-1 beta induced IL-8 release in HeLa cells (IgG1) [3]: 0.0494 nM | IC50 [4]: 0.469 nM
B15: Antibody 3 IgG1 (antibody, V domains shown)
VH: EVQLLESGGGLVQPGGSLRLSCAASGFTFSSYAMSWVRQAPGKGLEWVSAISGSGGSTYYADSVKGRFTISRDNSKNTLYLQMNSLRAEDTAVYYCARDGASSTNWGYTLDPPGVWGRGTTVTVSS
VL: B14 VL with H95A, L96A, E97R, Q98V, H100L
notes: as for B5

IC50 [1]: 0.147 nM
B16: MoD3 HuD1-D2 IL1R1 (Fc fusion, human;mouse, UniProt P14778 18-227, looked up, not shown: a dimerising Fc or GST)
chain: LEADKCKEREEKIILVSSANEIDVRPCPLNPNEHKGTITWYKDDSKTPVSTEQASRIHQHKEKLWFVPAKVEDSGHYYCVVRNSSYCLRIKISAKFVENEPNLCYNAQAIFKQKLPVAGDGGLVCPYMEFFKNENNELPKLQWYKDCKPLLLDNIHFSGVKDRLIVMNVAEKHRGNYTCHASYTYLGKQYPITRVIEFITLEENKPTRPVILSPRNETIEADPGSMIQLICNVTGQFSDLVYWKWNGSEIEWNDPFLAEDYQFVEHPSTKRKYTLITTLNISEVKSQFYRYPFICVVKNTNIFESAHVQLIYPVPDFK
notes: range 1-227;range 231-338
